Results on 94 variants are retold here after the supplement of paper PMC10567573.

B1: SNX8 (parent)
chain: VVLKLFLSFSGSDVQNKLKESAQC
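Further: lentivirally expressed fusions sorted by FACS into six bins by GFP to DsRed ratio, PSI derived from sequencing read proportions per bin multiplied by bin number.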

The variants in this series derive from B1. As to the kind of experiment: protein stability index of a GFP-peptide fusion (GPS, HEK-293T) (PSI 1-6); higher = more stable. To be noted: c terminus: a fixed tail appended.
Consider VVLKLFLSFSGSDVQNKLKEVAQC [S21V], for which the protein stability index came out at 2.46.
For VVLKLFLSFSGSDVQNKLKEFAQC [S21F] the value was 1.88; for VVLKLFLSFSGSDVQNKLKENAQC [S21N], 2.55.
As to VVLKLFLSFSGSDVQNKLKEKAQC [S21K], the protein stability index stood at 2.25.
Regarding VVLKLFLSFSGSDVQNKLKEYAQC [S21Y], the protein stability index was determined as 2.66.
The result for VVLKLFLSFSGSDVQNKLKEWAQC [S21W] reads 2.66; that for VVLKLFLSFSGSDVQNKLKEDAQC [S21D], 1.56.
As for VVLKLFLSFSGSDVQNKLKEMAQC [S21M], the protein stability index was 2.03.
For the variant VVLKLFLSFSGSDVQNKLAESAQC [K19A], the protein stability index stood at 4.92.
On to VVLKLFLSFSGSDVQNKLNESAQC [K19N], for which the protein stability index came out at 2.76.
For VVLKLFLSFSGSDVQNKLQESAQC [K19Q] the value was 5.1; for VVLKLFLSFSGSDVQNKLGESAQC [K19G], 3.41.
The result for VVLKLFLSFSGSDVQNKLMESAQC [K19M] reads 2.37; that for VVLKLFLSFSGSDVQNKLPESAQC [K19P], 3.75; that for VVLKLFLSFSGSDVQNKLRESAQC [K19R], 2.25.
For VVLKLFLSFSGSDVQNKLIESAQC [K19I] the value was 2.23; for VVLKLFLSFSGSDVQNKLFESAQC [K19F], 2.79; for VVLKLFLSFSGSDVQNKLKESAQP [C24P], 3.78.
As for VVLKLFLSFSGSDVQNKLKESAQN [C24N], the protein stability index stood at 2.99.
For the variant VVLKLFLSFSGSDVQNKLKESAQW [C24W], the protein stability index was determined as 1.84.
Consider VVLKLFLSFSGSDVQNKLKESAQF [C24F], for which the protein stability index came out at 4.02.
As for VVLKLFLSFSGSDVQNKLKESAQS [C24S], the protein stability index was 3.35.
Turning to VVLKLFLSFSGSDVQNKLKESAQV [C24V], the protein stability index stood at 2.91.
The result for VVLKLFLSFSGSDVQNKLKESAQD [C24D] reads 1.9; that for VVLKLFLSFSGSDVQNKLKESAQL [C24L], 5.49; that for VVLKLFLSFSGSDVQNKLKESAQH [C24H], 2.17.
As for VVLKLFLSFSGSDVMNKLKESAQC [Q15M], the protein stability index is 4.13.
As to VVLKLFLSFSGSDVDNKLKESAQC [Q15D], the protein stability index is 1.8.
The result for VVLKLFLSFSGSDVFNKLKESAQC [Q15F] reads 3.49; that for VVLKLFLSFSGSDVTNKLKESAQC [Q15T], 3.35.
Regarding VVLKLFLSFSGSDVNNKLKESAQC [Q15N], the protein stability index worked out at 2.9.
The result for VVLKLFLSFSGSDVYNKLKESAQC [Q15Y] reads 3.96; that for VVLKLFLSFSGSDVCNKLKESAQC [Q15C], 4.88; that for VVLKLFLSFSGSDVQNLLKESAQC [K17L], 3.46.
As to VVLKLFLSFSGSDVQNTLKESAQC [K17T], the protein stability index came to 3.29.
As for VVLKLFLSFSGSDVQNALKESAQC [K17A], the protein stability index came out at 1.72.
Consider VVLKLFLSFSGSDVQNWLKESAQC [K17W], for which the protein stability index is 4.7.
Consider VVLKLFLSFSGSDVQNYLKESAQC [K17Y], for which the protein stability index is 3.54.
For VVLKLFLSFSGSDVQNVLKESAQC [K17V] the value was 2.59; for VVLKLFLSFSGSDVQNKAKESAQC [L18A], 2.7; for VVLKLFLSFSGSDVQNKQKESAQC [L18Q], 4.56.
The result for VVLKLFLSFSGSDVQNKFKESAQC [L18F] reads 2.86.
The result for VVLKLFLSFSGSDVQNKIKESAQC [L18I] reads 2.58; that for VVLKLFLSFSGSDVQNKMKESAQC [L18M], 4.11.
Consider VVLKLFLSFSGSDVQNKTKESAQC [L18T], for which the protein stability index was found to be 2.13.
The result for VVLKLFLSFSGSDVQNKCKESAQC [L18C] reads 3.48; that for VVLKLFLSFSGSDVQNKGKESAQC [L18G], 4.32.
Take VVLKLFLSFSGSDVQNKWKESAQC [L18W]: the protein stability index came out at 1.93.
Regarding VVLKLFLSFSGSDVQNKEKESAQC [L18E], the protein stability index was determined as 2.26.
Consider VVLKLFLSFSGSDVQNKRKESAQC [L18R], for which the protein stability index stood at 1.5.
The result for VVLKLFLSFSGSDNQNKLKESAQC [V14N] reads 1.99.
For VVLKLFLSFSGSDYQNKLKESAQC [V14Y] the value was 2.62.
The result for VVLKLFLSFSGSDTQNKLKESAQC [V14T] reads 2.53; that for VVLKLFLSFSGSDSQNKLKESAQC [V14S], 4.53; that for VVLKLFLSFSGSDVQNKLKFSAQC [E20F], 3.18.
For the variant VVLKLFLSFSGSDVQNKLKDSAQC [E20D], the protein stability index was 3.55.
For the variant VVLKLFLSFSGSDVQNKLKSSAQC [E20S], the protein stability index stood at 3.97.
The result for VVLKLFLSFSGSDVQNKLKASAQC [E20A] reads 2.89.
With VVLKLFLSFSGSDVQNKLKNSAQC [E20N], the protein stability index is 3.6.
On to VVLKLFLSFSGSDVQNKLKYSAQC [E20Y], for which the protein stability index was determined as 3.73.
In the case of VVLKLFLSFSGSDVQNKLKMSAQC [E20M], the protein stability index was determined as 2.13.
In the case of VVLKLFLSFSGSDVQNKLKCSAQC [E20C], the protein stability index is 3.61.
As to VVLKLFLSFSGSDVQNKLKQSAQC [E20Q], the protein stability index was 2.37.
For VVLKLFLSFSGSDVQNKLKLSAQC [E20L] the value was 1.89.
The result for VVLKLFLSFSGSDVQNKLKESACC [Q23C] reads 3.1; that for VVLKLFLSFSGSDVQNKLKESADC [Q23D], 2.27; that for VVLKLFLSFSGSDVQNKLKESAIC [Q23I], 3.23.
VVLKLFLSFSGSDVQNKLKESARC [Q23R]: the protein stability index is 2.8.
The result for VVLKLFLSFSGSDVQNKLKESALC [Q23L] reads 3.31; that for VVLKLFLSFSGSDVQNKLKESAYC [Q23Y], 2.52; that for VVLKLFLSFSGSDVQNKLKESAFC [Q23F], 1.71.
For VVLKLFLSFSGSDVQNKLKESASC [Q23S], the protein stability index came out at 1.46.
For VVLKLFLSFSGSDVQNKLKESAAC [Q23A] the value was 3.04; for VVLKLFLSFSGSDVQNKLKESAKC [Q23K], 2.59; for VVLKLFLSFSGSDVQNKLKESATC [Q23T], 2.48.
The result for VVLKLFLSFSGSDVQNKLKESYQC [A22Y] reads 1.93.
Turning to VVLKLFLSFSGSDVQNKLKESWQC [A22W], the protein stability index was determined as 3.87.
On to VVLKLFLSFSGSDVQNKLKESCQC [A22C], for which the protein stability index was determined as 2.05.
As to VVLKLFLSFSGSDVQNKLKESEQC [A22E], the protein stability index came out at 3.99.
For VVLKLFLSFSGSDVQNKLKESFQC [A22F] the value was 3.23; for VVLKLFLSFSGSDVQNKLKESMQC [A22M], 3.48; for VVLKLFLSFSGSDVQNKLKESKQC [A22K], 2.18.
As for VVLKLFLSFSGSDVQNKLKESGQC [A22G], the protein stability index was 3.13.
For VVLKLFLSFSGSDVQNKLKESTQC [A22T] the value was 1.76; for VVLKLFLSFSGSDVQNKLKESDQC [A22D], 4.82; for VVLKLFLSFSGSDVQIKLKESAQC [N16I], 2.64.
In the case of VVLKLFLSFSGSDVQRKLKESAQC [N16R], the protein stability index was found to be 2.84.
Regarding VVLKLFLSFSGSDVQHKLKESAQC [N16H], the protein stability index stood at 1.75.
VVLKLFLSFSGSDVQGKLKESAQC [N16G]: the protein stability index is 1.35.
Take VVLKLFLSFSGSDVQAKLKESAQC [N16A]: the protein stability index stood at 2.02.
With VVLKLFLSFSGSDVQWKLKESAQC [N16W], the protein stability index was 3.64.
The result for VVLKLFLSFSGSDVQKKLKESAQC [N16K] reads 2.2; that for VVLKLFLSFSGSDVQFKLKESAQC [N16F], 2.04.
As to VVLKLFLSFSGSDVQQKLKESAQC [N16Q], the protein stability index came out at 4.03.
